Biological target: T1, human GFRAL (human, UniProt Q6UXV0 19-394)
T1 sequence (looked up): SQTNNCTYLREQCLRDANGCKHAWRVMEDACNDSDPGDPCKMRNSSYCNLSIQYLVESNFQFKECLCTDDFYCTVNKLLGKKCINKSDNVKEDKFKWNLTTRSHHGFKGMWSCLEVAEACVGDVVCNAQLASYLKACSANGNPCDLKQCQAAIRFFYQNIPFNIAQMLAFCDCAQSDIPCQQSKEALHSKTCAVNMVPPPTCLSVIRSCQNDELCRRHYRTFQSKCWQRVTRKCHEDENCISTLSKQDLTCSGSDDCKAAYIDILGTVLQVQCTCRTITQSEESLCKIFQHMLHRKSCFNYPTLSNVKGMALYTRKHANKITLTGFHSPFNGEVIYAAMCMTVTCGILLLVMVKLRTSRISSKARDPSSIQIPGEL
Experiment: cell-based or functional assay

B1: Native GDF15 (SEQ ID NO: 9) (ligand)
chain: ARNGDHCPLGPGRCCRLHTVRASLEDLGWADWVLSPREVQVTMCIGACPSQFRAANMHAQIKTSLHRLKPDTVPAPCCVPASYNPMVLIQKTDTGVSLQTYDDLLAKDCHCI
- 1% HSA GDF15 activity (EC50, pM); SRE luciferase reporter: 8.2 pM
- HSA free GDF15 activity (EC50, pM); SRE luciferase reporter: 10.3 pM
